Results on three molecules are retold here after patent publication US20140274782A1, “AFFINITY REAGENTS AND METHODS FOR DETECTION, PURIFICATION, AND PROTEOMIC ANALYSIS OF METHYLATED PROTEINS” (The Board of Trustees of the Leland Stanford Junior …, priority 2013, published 2014).

The subject of assay [1] is 3×MBT domain of L3MBTL1. Kind of assay: SILAC proteomic pull-down 3×MBT vs 3×MBTD355N from 293T nuclear extract, LC-MS/MS. The conditions noted are these: for Protein Ratio 3xMBT/D355N: SILAC ratio, 293T nuclear extract pull-down, * = protein identified in only one labeling experiment. Format: binding, human. The method in brief:
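SILAC-labelled HEK 293T nuclear extract (600 μg) bound overnight at 4 °C to GST-3×MBT or 3×MBTD355N beads, with forward and label-swap runs; proteins kept if quantified in both directions. Glutathione eluates had the GST domains depleted, then went through SDS-PAGE, in-gel trypsin digest, Orbitrap LC-MS/MS and MaxQuant quantitation.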

Assay [2] deals with 3×MBT domain of L3MBTL1. The experiment in a line: Triple SILAC pull-down, 3xMBT/3xMBTD355N ratio (cytoplasmic, nuclear and chromatin fractions of 293T cells).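 On all read-outs here: proteins quantified with MaxQuant, requiring at least two unique peptides and quantification in both label directions, normalized to the mean of proteins from a digested loading control.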 Format: binding, human. The conditions noted are these: for 3xMBT/D355N UNC Heavy: experiment with UNC0638 in heavy SILAC media; for 3xMBT/D355N UNC Light: experiment with UNC0638 in light SILAC media.
The subject of assay [3] is methylated histones (HeLa nucleosomes, calf thymus histones), p53K382me1, H3K9me2. The experiment in a line: Far Western assay. Type of assay: binding. Here is the method: For Far Western assays, proteins were separated by SDS-PAGE and transferred to a PVDF membrane. Following blocking, membranes were incubated overnight with the indicated domain. Domain binding was determined using an epitope tag-specific antibody and appropriate HRP-conjugated secondary antibody.
For Far Western assays on purified HeLa nucleosomes and calf thymus histones, the indicated amounts of nucleosome or histone were separated by SDS-PAGE and transferred to a PVDF membrane. The membrane was blocked in milk prepared with Tris-buffered saline with 0.1% Tween (TBST). Membranes were incubated overnight at 4° C. with 1 μg/ml of the indicated domain in TBST. Domain binding was determined using an epitope tag-specific antibody and appropriate HRP-conjugated secondary antibody.
For the SET8/p53 Far Westerns, p53 was methylated in vitro as previously described (Kuo et al., 2011), with 5 μg enzyme and 1 μg substrate per 25 μl of reaction volume incubated at 30° C. overnight. Following the methylation reaction, PreScission Protease was added directly to the reaction mix and samples were incubated overnight at 4° C. Blotting was conducted as described above. G9a SET domain/recombinant H3 (New England BioLabs) samples were prepared similarly, without a GST cleavage step.

[4] abbreviates: SILAC ratio 3xMBT vs 3xMBTD355N pull-down, 293T cells, all values in log base 2.
Setting [5] is: SILAC ratio, pull-down 3xMBT vs 3xMBTD355N.

B1: SCML2: protein with methylated lysine identified in 3xMBT pull-down (protein, UniProt Q9UQR0 1-700, looked up)
Sex comb on midleg-like …: MGQTVNEDSMDVKKENQEKTPQSSTSSVQRDDFHWEEYLKETGSISAPSECFRQSQIPPVNDFKVGMKLEARDPRNATSVCIATVIGITGARLRLRLDGSDNRNDFWRLVDSPDIQPVGTCEKEGDLLQPPLGYQMNTSSWPMFLLKTLNGSEMASATLFKKEPPKPPLNNFKVGMKLEAIDKKNPYLICPATIGDVKGDEVHITFDGWSGAFDYWCKYDSRDIFPAGWCRLTGDVLQPPGTSVPIVKNIAKTESSPSEASQHSMQSPQKTTLILPTQQVRRSSRIKPPGPTAVPKRSSSVKNITPRKKGPNSGKKEKPLPVICSTSAASLKSLTRDRGMLYKDVASGPCKIVMSTVCVYVNKHGNFGPHLDPKRIQQLPDHFGPGPVNVVLRRIVQACVDCALETKTVFGYLKPDNRGGEVITASFDGETHSIQLPPVNSASFALRFLENFCHSLQCDNLLSSQPFSSSRGHTHSSAEHDKNQSAKEDVTERQSTKRSPQQTVPYVVPLSPKLPKTKEYASEGEPLFAGGSAIPKEENLSEDSKSSSLNSGNYLNPACRNPMYIHTSVSQDFSRSVPGTTSSPLVGDISPKSSPHEVKFQMQRKSEAPSYIAVPDPSVLKQGFSKDPSTWSVDEVIQFMKHTDPQISGPLADLFRQHEIDGKALFLLKSDVMMKYMGLKLGPALKLCYYIEKLKEGKYS
Consider B1, for which the “Protein Ratio 3xMBT/D355N” value in the assay on 3×MBT domain of L3MBTL1 [1] turned out to be 1.7. In addition, in the assay with 3×MBT domain of L3MBTL1 [2] (setting [4]), the “3xMBT/D355N UNC Heavy” value was 1.39 log base 2 and the “3xMBT/D355N UNC Light” value is reported as 1.28 log base 2.

B2: 3×MBT: three MBT repeats of L3MBTL1 (amino acids 190-530 of accession NP—056293.4), expressed as GST or Flag fusion; methyl-lysine affinity reagent (protein)
chain: EEWSSSQPATGEKKECWSWESYLEEQKAITAPVSLFQDSQAVTHNKNGFKLGMKLEGIDPQHPSMYFILTVAEVCGYRLRLHFDGYSECHDFWVNANSPDIHPAGWFEKTGHKLQPPKGYKEEEFSWSQYLRSTRAQAAPKHLFVSQSHSPPPLGFQVGMKLEAVDRMNPSLVCVASVTDVVDSRFLVHFDNWDDTYDYWCDPSSPYIHPVGWCQKQGKPLTPPQDYPDPDNFCWEKYLEETGASAVPTWAFKVRPPHSFLVNMKLEAVDRRNPALIRVASVEDVEDHRIKIHFDGWSHGYDFWIDADHPDIHPAGWCSKTGHPLQPPLGPREPSSASPGG
modifications: left off: a dimerising Fc or GST
As for B2, in assay [3], the “Far Western detection of recombinant H3 dimethylated at lysine 9 (H3K9me2) by G9a SET domain” value was “specifically detects” and the “Far Western detection of recombinant p53 mono-methylated at lysine 382 by SET8” value is given as “detected”. Besides, the “Far Western detection of histones” value in assay [3] (purified HeLa nucleosomes and calf thymus histones) was “detected”. Further, the “amount of protein captured from nucleoplasmic extract” value in the assay with 3×MBT domain of L3MBTL1 [1] (293T cells, silver stain, relative to the other domain) is on record as “captured more proteins”. For the same molecule, in the assay with 3×MBT domain of L3MBTL1 [1] (SILAC), the “number of the 544 identified proteins enriched at 2-fold versus the other domain” value is given as 313 and the “percentage of the 544 identified proteins enriched at 2-fold versus the other domain” value came out at 57.5%. The “number of proteins enriched by 3×MBT compared to 3×MBTD355N” value with 3×MBT domain of L3MBTL1 [2] (two biological replicates) is reported as 370.

B3: NHP2L1: protein with methylated lysine identified in 3xMBT pull-down (protein, UniProt P55769 1-128, looked up)
NHP2-like protein 1: MTEADVNPKAYPLADAHLTKKLLDLVQQSCNYKQLRKGANEATKTLNRGISEFIVMAADAEPLEIILHLPLLCEDKNVPYVFVRSKQALGRACGVSRPVIACSVTIKEGSQLKQQIQSIQQSIERLLV
Take B3: in the assay with 3×MBT domain of L3MBTL1 [1], the “Protein Ratio 3xMBT/D355N” value is on record as 4.4*. Besides, in the assay with 3×MBT domain of L3MBTL1 [2] (setting [5]), the “3xMBT/D355N UNC Heavy” value was 1.56 log base 2 and the “3xMBT/D355N UNC Light” value amounted to 3.46 log base 2.
